# Test results published in article PMC6872938.
# Columns and labels:
# [1] = biological target: His6-tagged HzTransib transposase (Transib transposase from Helicoverpa zea), residues 17-507 (Helicoverpa zea); test: SEC-MALS
# [2] = biological target: MBP-tagged HzTransib transposase (Transib transposase from Helicoverpa zea), residues 17-507 (Helicoverpa zea); test: SEC-MALS
stoichiometry N [1],stoichiometry N [2],Substance
2,–,"His6-tagged HzTransib transposase (Transib transposase from Helicoverpa zea), residues 17-507 (enzyme)"
–,2,"MBP-tagged HzTransib transposase (Transib transposase from Helicoverpa zea), residues 17-507 (enzyme)"
